Assay results as given in PMC7611338 (Current biology : CB, 2021).

Biological target: the molecule itself
Assay: fluorescence correlation spectroscopy

B1: dE-cad^WT::GFP (Drosophila E-cadherin, wild type, GFP-tagged) (natural protein)
chain: PGQSYAIIVRAYNVVPDPPQDAQIEVRIRVVESSIKPPSFVNPIDTPIYLKENLKNFTHPIATLRAVSNMPDKPEVIFELNTGRTEQTNSKNTFVFNQIGNEVTISLGKTLDYEAITDYTLTMIVRNTHELGTEHQIKIQVEDVNDNIPYYTEVKSGTILENEPPGTPVMQVRAFDMDGTSANNIVSFELADNREYFTIDPNTGNITALTTFDREERDFYNVKVIASDNSPSSLFDNGEPNRGHQVFRISIGDKNDHKPHFQQDKYLAERLLEDANTNTEVIEVKAEDEDNASQILYSIESGNVGDAFKIGLKTGKITVNQKLDYETITEYELKVRAFDGIYDDYTTVVIKIEDVNDNPPVFKQDYSVTILEETTYDDCILTVEAYDPDIKDRNADQHIVYSIHQNDGNRWTIDNSGCLRLVKTLDRDPPNGHKNWQVLIKANDEDGVGTTVSTVKEVTVTLKDINDNAPFLINEMPVYWQENRNPGHVVQLQANDYDDTPGAGNFTFGIDSEATPDIKTKFSMDGDYLHANVQFDREAQKEYFIPIRISDSGVPRQSAVSILHLVIGDVNDNAMSEGSSRIFIYNYKGEAPETDIGRVFVDDLDDWDLEDKYFEWKDLPHDQFRLNPSTGMITMLVHTAEGEYDLSFVVTEDSMFVPRHSVDAYVTVVVRELPEEAVDKSGSIRFINVTKEEFISVPRDFQSPDALSLKDRLQLSLAKLFNTSVSNVDVFTVLQNENHTLDVRFSAHGSPYYAPEKLNGIVAQNQQRLENELDLQMLMVNIDECLIEKFKCEESCTNELHKSSVPYMIYSNTTSFVGVNAFVQAQCVCEAPLMRRCLNGGSPRYGENDVCDCIDGFTGPHCELVSVAFYGSGYAFYEPIAACNNTKISLEITPQIDQGLIMYLGPLNFNPLLAISDFLALELDNGYPVLTVDYGSGAIRIRHQHIKMVADRTYQLDIILQRTSIEMTVDNCRLSTCQTLGAPIGPNEFLNVNAPLQLGGTPVDLEQLGRQLNWTHVPNQKGFFGCIRNLTINEQTYNLGMPSVFRNIDSGCQQSVAVAFSFGIDRNFIIAIIVCLALLLIILLAVVVQKKQKNGWHEKDIDDIRETIINYEDEGGGERDTDYDLNVLRTQPFYEEKLYKDPHALQGNMRDPNDIPDIADFLGDKKENCDRDVGATTVDDVRHYAYEGDGNSDGSLSSLASCTDDGDLNFDYLSNFGPRFRKLADMYGEEPSDTDSNVDDDQGWRI
stoichiometry N: ~4
